Results published in patent US20220135655A1.

Molecular target: H5VN04 recombinant trimeric hemagglutinin (HA) (influenza A virus H5VN04 (H5N1))

Question: Which fold reduction of binding against CR6261 does the source give for CR6261 Y98A scFv here?
Answer: > 4000 fold

Question: For F10 Y98A scFv, which fold reduction of binding against F10 is on record?
Answer: > 3000 fold

Question: CR6261 F54A scFv was tested. Which fold reduction of binding against CR6261 did it give?
Answer: 800 fold
